Consider eight molecules from patent publication US8969060B2, “Modified glucose dehydrogenase” (Ikeda Food Research Co., Ltd., priority 2011, dated 2015).

The nature of series [1]: Relative enzymatic activity of GLD (DCIP/1-m-PMS, plate reader, yeast culture supernatant) with proflavin hydrochloride present. The series is classed as biochemical. The note with it: site-specific mutants, inhibitor final concentration 1 mM. In outline: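 Culture supernatant diluted and mixed with reagent of phosphate buffer pH 7.0, 1.0 M D-glucose, 3 mM DCIP, 3 mM 1-m-PMS and methanol (0.1:1:0.14:0.2:0.06). DCIP absorbance decrease at 600 nm followed; proflavin hydrochloride in methanol replaced methanol at 1 mM final. Activity expressed as % of inhibitor-free blank.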

Series [2] in a line: Relative enzymatic activity of GLD (DCIP/1-m-PMS, plate reader, yeast culture supernatant) with 1,10-phenanthroline present. The note with it: site-specific mutants, inhibitor final concentration 1 mM. The series is classed as biochemical. In outline:
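Inhibitor at 1 mM final substitutes for the methanol in the reagent, and the sample rate is expressed as % of the inhibitor-free blank. Rates come from ΔA600/min of DCIP with glucose and 1-m-PMS at pH 7.0, using supernatants of YPD-grown yeast clones (24 h, 30° C.).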

B1: K354P: modified GLD: SEQ ID NO: 1 with substitution K354P (protein, listed as Aspergillus terreus)
chain: MLGKLSFLSALSLAVAAPLSNSTSAKYDYIVIGGGTSGLAVANRLSEDPNVNVLILEAGGSVWNNPNVTNVDGYGLAFGSDIDWQYQSVNQPYGGNLSQVLRAGKALGGTSTINGMAYTRAEDVQIDAWETIGNTGWTWKNLFPYYRKSENFTVPTKSQTSLGASYEAGAHGHEGPLDVAFTQIESNNLTTYLNRTFQGMGLPWTEDVNGGKMRGFNLYPSTVNLEEYVREDAARAYYWPYKSRPNLHVLLNTFANRIVWDGEAHDGHITASGVEITSRNGTVRVINAEKEVIVSAGALKSPAILELSGIGNPSVLDKHNIPVKVNLPTVGENLQDQVNSHMDASGNTSISGTPAVSYPDVYDVFGDEAESVAKQIRANLKQYAADTAKANGNIMKAADLERLFEVQYDLIFKGRVPIAEVLNYPGSATSVFAEFWALLPFARGSVHIGSSNPAEFPVINPNYFMLDWDAKSYVAVAKYIRRSFESYPLSSIVKESTPGYDVIPRNASEQSWKEWVFDKNYRSNFHPVGTAAMMPREIGGVVDERLNVYGTTNVRVVDASVLPFQVCGHLVSTLYAVAERAADLIKADAGRR
modifications: SIGNAL (1)..(19)
With B1, the “Relative Activity [%] Proflavin hydrochloride” value in series [1] is 16.7%. The “Relative Activity [%] 1,10-Phenanthroline” value in series [2] is 64.3%.

B2: K354Y: modified GLD: SEQ ID NO: 1 with substitution K354Y (protein, listed as Aspergillus terreus)
chain: MLGKLSFLSALSLAVAAPLSNSTSAKYDYIVIGGGTSGLAVANRLSEDPNVNVLILEAGGSVWNNPNVTNVDGYGLAFGSDIDWQYQSVNQPYGGNLSQVLRAGKALGGTSTINGMAYTRAEDVQIDAWETIGNTGWTWKNLFPYYRKSENFTVPTKSQTSLGASYEAGAHGHEGPLDVAFTQIESNNLTTYLNRTFQGMGLPWTEDVNGGKMRGFNLYPSTVNLEEYVREDAARAYYWPYKSRPNLHVLLNTFANRIVWDGEAHDGHITASGVEITSRNGTVRVINAEKEVIVSAGALKSPAILELSGIGNPSVLDKHNIPVKVNLPTVGENLQDQVNSHMDASGNTSISGTYAVSYPDVYDVFGDEAESVAKQIRANLKQYAADTAKANGNIMKAADLERLFEVQYDLIFKGRVPIAEVLNYPGSATSVFAEFWALLPFARGSVHIGSSNPAEFPVINPNYFMLDWDAKSYVAVAKYIRRSFESYPLSSIVKESTPGYDVIPRNASEQSWKEWVFDKNYRSNFHPVGTAAMMPREIGGVVDERLNVYGTTNVRVVDASVLPFQVCGHLVSTLYAVAERAADLIKADAGRR
modifications: SIGNAL (1)..(19)
As for B2, the “Relative Activity [%] Proflavin hydrochloride” value in series [1] was found to be 15.1%. Moreover, the “Relative Activity [%] 1,10-Phenanthroline” value in series [2] turned out to be 56.0%.

B3: Y424D: modified GLD: SEQ ID NO: 1 with substitution Y424D (protein, listed as Aspergillus terreus)
chain: MLGKLSFLSALSLAVAAPLSNSTSAKYDYIVIGGGTSGLAVANRLSEDPNVNVLILEAGGSVWNNPNVTNVDGYGLAFGSDIDWQYQSVNQPYGGNLSQVLRAGKALGGTSTINGMAYTRAEDVQIDAWETIGNTGWTWKNLFPYYRKSENFTVPTKSQTSLGASYEAGAHGHEGPLDVAFTQIESNNLTTYLNRTFQGMGLPWTEDVNGGKMRGFNLYPSTVNLEEYVREDAARAYYWPYKSRPNLHVLLNTFANRIVWDGEAHDGHITASGVEITSRNGTVRVINAEKEVIVSAGALKSPAILELSGIGNPSVLDKHNIPVKVNLPTVGENLQDQVNSHMDASGNTSISGTKAVSYPDVYDVFGDEAESVAKQIRANLKQYAADTAKANGNIMKAADLERLFEVQYDLIFKGRVPIAEVLNDPGSATSVFAEFWALLPFARGSVHIGSSNPAEFPVINPNYFMLDWDAKSYVAVAKYIRRSFESYPLSSIVKESTPGYDVIPRNASEQSWKEWVFDKNYRSNFHPVGTAAMMPREIGGVVDERLNVYGTTNVRVVDASVLPFQVCGHLVSTLYAVAERAADLIKADAGRR
modifications: SIGNAL (1)..(19)
Regarding B3, in series [1], the “Relative Activity [%] Proflavin hydrochloride” value is 37.2%. Also, the “Relative Activity [%] 1,10-Phenanthroline” value in series [2] was 87.1%.

B4: K354S: modified GLD: SEQ ID NO: 1 with substitution K354S (protein, listed as Aspergillus terreus)
chain: MLGKLSFLSALSLAVAAPLSNSTSAKYDYIVIGGGTSGLAVANRLSEDPNVNVLILEAGGSVWNNPNVTNVDGYGLAFGSDIDWQYQSVNQPYGGNLSQVLRAGKALGGTSTINGMAYTRAEDVQIDAWETIGNTGWTWKNLFPYYRKSENFTVPTKSQTSLGASYEAGAHGHEGPLDVAFTQIESNNLTTYLNRTFQGMGLPWTEDVNGGKMRGFNLYPSTVNLEEYVREDAARAYYWPYKSRPNLHVLLNTFANRIVWDGEAHDGHITASGVEITSRNGTVRVINAEKEVIVSAGALKSPAILELSGIGNPSVLDKHNIPVKVNLPTVGENLQDQVNSHMDASGNTSISGTSAVSYPDVYDVFGDEAESVAKQIRANLKQYAADTAKANGNIMKAADLERLFEVQYDLIFKGRVPIAEVLNYPGSATSVFAEFWALLPFARGSVHIGSSNPAEFPVINPNYFMLDWDAKSYVAVAKYIRRSFESYPLSSIVKESTPGYDVIPRNASEQSWKEWVFDKNYRSNFHPVGTAAMMPREIGGVVDERLNVYGTTNVRVVDASVLPFQVCGHLVSTLYAVAERAADLIKADAGRR
modifications: SIGNAL (1)..(19)
Consider B4, for which, in series [1], the “Relative Activity [%] Proflavin hydrochloride” value amounted to 21.3%. In addition, the “Relative Activity [%] 1,10-Phenanthroline” value in series [2] is listed as 71.6%.

B5: Y424C: modified GLD: SEQ ID NO: 1 with substitution Y424C (protein, listed as Aspergillus terreus)
chain: MLGKLSFLSALSLAVAAPLSNSTSAKYDYIVIGGGTSGLAVANRLSEDPNVNVLILEAGGSVWNNPNVTNVDGYGLAFGSDIDWQYQSVNQPYGGNLSQVLRAGKALGGTSTINGMAYTRAEDVQIDAWETIGNTGWTWKNLFPYYRKSENFTVPTKSQTSLGASYEAGAHGHEGPLDVAFTQIESNNLTTYLNRTFQGMGLPWTEDVNGGKMRGFNLYPSTVNLEEYVREDAARAYYWPYKSRPNLHVLLNTFANRIVWDGEAHDGHITASGVEITSRNGTVRVINAEKEVIVSAGALKSPAILELSGIGNPSVLDKHNIPVKVNLPTVGENLQDQVNSHMDASGNTSISGTKAVSYPDVYDVFGDEAESVAKQIRANLKQYAADTAKANGNIMKAADLERLFEVQYDLIFKGRVPIAEVLNCPGSATSVFAEFWALLPFARGSVHIGSSNPAEFPVINPNYFMLDWDAKSYVAVAKYIRRSFESYPLSSIVKESTPGYDVIPRNASEQSWKEWVFDKNYRSNFHPVGTAAMMPREIGGVVDERLNVYGTTNVRVVDASVLPFQVCGHLVSTLYAVAERAADLIKADAGRR
modifications: SIGNAL (1)..(19)
Regarding B5, the “Relative Activity [%] Proflavin hydrochloride” value in series [1] turned out to be 45.9%. In addition, the “Relative Activity [%] 1,10-Phenanthroline” value in series [2] is listed as 73.7%.

B6: K354R: modified GLD: SEQ ID NO: 1 with substitution K354R (protein, listed as Aspergillus terreus)
chain: MLGKLSFLSALSLAVAAPLSNSTSAKYDYIVIGGGTSGLAVANRLSEDPNVNVLILEAGGSVWNNPNVTNVDGYGLAFGSDIDWQYQSVNQPYGGNLSQVLRAGKALGGTSTINGMAYTRAEDVQIDAWETIGNTGWTWKNLFPYYRKSENFTVPTKSQTSLGASYEAGAHGHEGPLDVAFTQIESNNLTTYLNRTFQGMGLPWTEDVNGGKMRGFNLYPSTVNLEEYVREDAARAYYWPYKSRPNLHVLLNTFANRIVWDGEAHDGHITASGVEITSRNGTVRVINAEKEVIVSAGALKSPAILELSGIGNPSVLDKHNIPVKVNLPTVGENLQDQVNSHMDASGNTSISGTRAVSYPDVYDVFGDEAESVAKQIRANLKQYAADTAKANGNIMKAADLERLFEVQYDLIFKGRVPIAEVLNYPGSATSVFAEFWALLPFARGSVHIGSSNPAEFPVINPNYFMLDWDAKSYVAVAKYIRRSFESYPLSSIVKESTPGYDVIPRNASEQSWKEWVFDKNYRSNFHPVGTAAMMPREIGGVVDERLNVYGTTNVRVVDASVLPFQVCGHLVSTLYAVAERAADLIKADAGRR
modifications: SIGNAL (1)..(19)
In the case of B6, the “Relative Activity [%] Proflavin hydrochloride” value in series [1] came out at 12.6%. Also, the “Relative Activity [%] 1,10-Phenanthroline” value in series [2] is 64.4%.

B7: K354Q: modified GLD: SEQ ID NO: 1 with substitution K354Q (protein, listed as Aspergillus terreus)
chain: MLGKLSFLSALSLAVAAPLSNSTSAKYDYIVIGGGTSGLAVANRLSEDPNVNVLILEAGGSVWNNPNVTNVDGYGLAFGSDIDWQYQSVNQPYGGNLSQVLRAGKALGGTSTINGMAYTRAEDVQIDAWETIGNTGWTWKNLFPYYRKSENFTVPTKSQTSLGASYEAGAHGHEGPLDVAFTQIESNNLTTYLNRTFQGMGLPWTEDVNGGKMRGFNLYPSTVNLEEYVREDAARAYYWPYKSRPNLHVLLNTFANRIVWDGEAHDGHITASGVEITSRNGTVRVINAEKEVIVSAGALKSPAILELSGIGNPSVLDKHNIPVKVNLPTVGENLQDQVNSHMDASGNTSISGTQAVSYPDVYDVFGDEAESVAKQIRANLKQYAADTAKANGNIMKAADLERLFEVQYDLIFKGRVPIAEVLNYPGSATSVFAEFWALLPFARGSVHIGSSNPAEFPVINPNYFMLDWDAKSYVAVAKYIRRSFESYPLSSIVKESTPGYDVIPRNASEQSWKEWVFDKNYRSNFHPVGTAAMMPREIGGVVDERLNVYGTTNVRVVDASVLPFQVCGHLVSTLYAVAERAADLIKADAGRR
modifications: SIGNAL (1)..(19)
Take B7: the “Relative Activity [%] Proflavin hydrochloride” value in series [1] is listed as 12.5%. The “Relative Activity [%] 1,10-Phenanthroline” value in series [2] turned out to be 71.4%.

B8: Y424E: modified GLD: SEQ ID NO: 1 with substitution Y424E (protein, listed as Aspergillus terreus)
chain: MLGKLSFLSALSLAVAAPLSNSTSAKYDYIVIGGGTSGLAVANRLSEDPNVNVLILEAGGSVWNNPNVTNVDGYGLAFGSDIDWQYQSVNQPYGGNLSQVLRAGKALGGTSTINGMAYTRAEDVQIDAWETIGNTGWTWKNLFPYYRKSENFTVPTKSQTSLGASYEAGAHGHEGPLDVAFTQIESNNLTTYLNRTFQGMGLPWTEDVNGGKMRGFNLYPSTVNLEEYVREDAARAYYWPYKSRPNLHVLLNTFANRIVWDGEAHDGHITASGVEITSRNGTVRVINAEKEVIVSAGALKSPAILELSGIGNPSVLDKHNIPVKVNLPTVGENLQDQVNSHMDASGNTSISGTKAVSYPDVYDVFGDEAESVAKQIRANLKQYAADTAKANGNIMKAADLERLFEVQYDLIFKGRVPIAEVLNEPGSATSVFAEFWALLPFARGSVHIGSSNPAEFPVINPNYFMLDWDAKSYVAVAKYIRRSFESYPLSSIVKESTPGYDVIPRNASEQSWKEWVFDKNYRSNFHPVGTAAMMPREIGGVVDERLNVYGTTNVRVVDASVLPFQVCGHLVSTLYAVAERAADLIKADAGRR
modifications: SIGNAL (1)..(19)
Regarding B8, the “Relative Activity [%] Proflavin hydrochloride” value in series [1] came out at 37.1%. The “Relative Activity [%] 1,10-Phenanthroline” value in series [2] is 87.5%.
